The supplement of paper PMC9170038

Tested on: MS2 coat protein
Test: apparent KD of MS2 coat protein; designed switch direction (-1 OFF switch, 1 ON switch): -1; higher = weaker reporter binding
Summary of the method: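 Designed RNA switches sharing common flanks were transcribed on Illumina chips by stalled E. coli RNA polymerase. They were titrated with SNAP-549-labelled MS2 coat protein, from 0.7 or 1.5 nM doubling to 3 µM, in Tris-HCl pH 7.5 buffer with KCl, MgCl2, BSA, DTT, tRNA and Tween-20. Titrations ran without input, with 200 uM small-molecule ligand, or with an oligonucleotide input. The apparent KD of each design is the median over its clusters, after curve-fitting of normalised cluster fluorescence.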

[1] = input ligand: microRNA oligo, concentration not stated
[2] = Eterna round: R95, input ligand: microRNA oligo, concentration not stated
[3] = Eterna round: R95, input ligand: FMN 200 uM
[4] = Eterna round: R95, input ligand: none

Row | Sequence | apparent KD of MS2 coat protein (input ligand: FMN 200 uM) [nM] | apparent KD of MS2 coat protein [1] [nM] | apparent KD of MS2 coat protein (input ligand: none) [nM] | apparent KD of MS2 coat protein [2] [nM] | apparent KD of MS2 coat protein [3] [nM] | apparent KD of MS2 coat protein [4] [nM]
1 | CUGCUGGAGCUUUGCUUUGGUCGUACAUGAGGAUCACCCAUGUAGGAUAUGGUAGGCUUUGCUUGCUAGAAGGAUAGAGUGGUC [salish99_ExNG3_r04_609] (Eterna round: R96, puzzle: Exclusion NG 3) | 197 | 77.5 | 88.8 |  |  | 
2 | GGACCGUAAGGAUAUGGCACGAAUCGACAGUCGAUCUCGAGCUAGAAGGUACAUGAGGAUCACCCAUGUCCGUU [Eternabot (L1) Solution 13] (Eterna round: R97, puzzle: Exclusion 4) | 25.4 |  | 19.2 |  |  | 
3 | GACCCACAUGAGGAUCACCCAUGUGAGGAUAUCAUGCUUCGUAGUAAACUACGAAGUGUGAGAAGGCACAAUGG [Omei Ex1 C7] (Eterna round: R97, puzzle: Exclusion 1) | 134 |  | 37.4 |  |  | 
4 | GGUAGUUCAGAUCCACAUGAGGAUCACCCAUGUUAAAGGAUCUAGGAUAUCGGGACAUCGAUGCCCGAGAAGGAGACUUUAGCG [Eternabot solution 39] (Eterna round: R96, puzzle: Exclusion NG 3) | 173 | 100 | 101 |  |  | 
5 | AUUAAAACAUAGGAUAUCGAAUUUAUUAUUUAACGAGAAGGAUGAACAUGAGGAUCACCCAUGUGGUAUCAUGG [Mat - Exclusion 6 - JL Mod - D26] (puzzle: Exclusion 6) |  |  |  | 202 |  | 
6 | GGCCUUCCGCAAGCUUUUUACAUGAGGAUCACCCAUGUGAUUUUUAGUCUUAUGCCCGGGCCCGUGUGGGCCCGGGC [-34.8, -55.6, A 14%] (Eterna round: R97, puzzle: Sensor, turn-off variant 1) | 23.4 |  | 23.1 |  |  | 
7 | ACCCAACAUGAGGAUCACCCAUGUCAGGAUAUCCAUCACUAUCACGAAAGGAUAGGAUGGAGAAGGGACAGAGG [ChP 04-04-2015 #3] (puzzle: Exclusion 1) |  |  |  | 99.8 | 325 | 158
8 | GGUGGGCUAGGAUAUGCUUUGGGAAAGCAUUCCUUCGAUAAACUUGAGGAUCACCCAAGUAGAAGGAGCUUGCC [salish99_ex2_r4_020] (Eterna round: R97, puzzle: Exclusion 2) | 16.4 |  | 13.4 |  |  | 
9 | AAGAAACAUGAGGAUCACCCAUGUGAGGAUAUGAAAAAGAAAAUAAAAUAAAGAAGAAUCAGAAGGCACAAAGG [Mat - Mod of Hog D4] (puzzle: Exclusion 1) |  |  |  | 24.9 | 34 | 28.1
10 | CUCUUGUGAGGAUAUCUCCCAGCGAUUAAUUGGGCAGUCUGAGAGAAGGUACAUGAGGAUCACCCAUGUGAUAG [Eternabot (L1) Solution 73] (Eterna round: R97, puzzle: Exclusion 4) | 69.3 |  | 61.7 |  |  | 
11 | AUAAUAAAGGAGGAUAUCGUAACGGAAACGUUACGAGAAGGUCUAACAUGAGGAUCACCCAUGUUCCUCAAAUA [Mat - Exclusion 6 - Eli Mod - D50] (puzzle: Exclusion 6) |  |  |  | 35.4 | 47.8 | 47
12 | GAUACCCAAGUCAGGAUAUCGGGAUACGAAAGUCACGAGAAGGGACAUGAGGAUCACCCAUGUAAAUAAAUAAA [Arege] (puzzle: Brourd's mod of Exclusion 4) |  |  |  | 31.1 | 62.7 | 33.2
13 | GCAUGCGACUGAGGAUAUGUAGUGACCUCAGUCGAGACAUGAGGAUCACCCAUGUACAGCACGUGACAGAAGGCAGCACAUGAU [Eternabot solution 14] (Eterna round: R96, puzzle: Exclusion NG 2) | 63.2 | 38.5 | 53.7 |  |  | 
14 | ACAUGCCGCGCAGGAUAUGGGACACAUGAGGAUCACCCAUGUGGUUUCAUGUCUAACCAAGCGUCCCAGAAGGGCGUGAACAUG [Ex NG2 #29] (Eterna round: R96, puzzle: Exclusion NG 2) | 30.9 | 16.1 | 25.2 |  |  | 
15 | UGCUACGGAGGAUAUACAUGAGGAUCACCCAUGUGUGAGAUUAGGCCGAGAGGCCAAUGUAGAAGGCCGUAGCU [jl-ex3-4.21 jl mod] (Eterna round: R97, puzzle: Exclusion 3) | 339 |  | 282 |  |  | 
16 | UACACUCAGCAGGAUAUGCAACAAAAUUAAAACGCAGAAGGGUUGACAUGAGGAUCACCCAUGUAACUCAUGCA [EX6 A.1] (Eterna round: R97, puzzle: Exclusion 6) | 14.2 |  | 15.7 |  |  | 
17 | UCACGGGAUUGAGGAUAUAUAUUUAUUAUUUUAAUAGAAGGCAAAGAGUUAGUUUUUUCACUAUACAUGAGGAUCACCCAUGUU [JR_ExcNG1_Sub086] (Eterna round: R96, puzzle: Exclusion NG 1) |  | 23.2 |  |  |  | 

Row | Sequence | apparent KD of MS2 coat protein (input ligand: FMN 200 uM) [nM] | apparent KD of MS2 coat protein [1] [nM] | apparent KD of MS2 coat protein (input ligand: none) [nM] | apparent KD of MS2 coat protein [2] [nM] | apparent KD of MS2 coat protein [3] [nM] | apparent KD of MS2 coat protein [4] [nM]
18 | CAUUAGCAAGCGAGAUCCCACAUGAGGAUCACCCAUGUGCUCGUCUUAUAAGGUACUGUGACGAUAGUCACGGUACC [Mat - Sensor, turn-off var - Eli Mod - D41] (Eterna round: R97, puzzle: Sensor, turn-off variant 1) | 17.1 |  | 14.3 |  |  | 
19 | GUGUGCACGCUGCGAUCCUACAUGAGGAUCACCCAUGUGGUCUGGUGGCGUGGGUCACCGGACUUGGCUCGUCUUGG [salish99_S_TOV1_R5_077] (Eterna round: R97, puzzle: Sensor, turn-off variant 1) | 171 |  | 169 |  |  | 
20 | GACAUACAUGAGGAUCACCCAUGUAAGGAUAUACGCAGUAGACUCCGAGGGACCUGAAGUAGAAGGUACAGGGU [Eternabot (L2) Solution 72] (Eterna round: R97, puzzle: Exclusion 1) | 103 |  | 34.5 |  |  | 
21 | UUACUCGCAGGAUAUACGGGACAUACACAUCAAACUACACGACAUGAGGAUCACCCAUGUAGAAGGGCGUUACA [Blue and Green] (Eterna round: R97, puzzle: Exclusion 2) | 73.5 |  | 51.2 |  |  | 
22 | UAUUUACAUGAGGAUCACCCAUGUCAGGAUAUGUUUCUAUCGUCGAAAGACGAUAUUUGCAGAAGGGACAAUAU [LRO-Excl01-26 mod derived from EliFisker 4.24] (Eterna round: R97, puzzle: Exclusion 1) | 64.4 |  | 27.9 |  |  | 
23 | AGACAGUCAGGAUAUACAUGAGGAUCACCCAUGUUGAGAUGAGAAAGGGCAGGAAGAGGUAGAAGGGACAAGAG [JR_Exclu3_Sub036] (puzzle: Exclusion 3) |  |  |  | 20.8 | 25 | 24.8
24 | GCACGGAGUGUAGGAUAUCUGUGCGAUUAGCUCAGAGAAGGACACAUGAGGAUCACCCAUGUGUUCCACGGAAACGAACCGUGC [Eli exng1 - 052] (Eterna round: R96, puzzle: Exclusion NG 1) | 11.8 | 10.2 | 13.4 |  |  | 
25 | AGUCGGUCAGGAUAUGCAAUCGUGGACAUGAGGAUCACCCAUGUAACGUGGGCCUGGUUUGUAGAAGGGACGUGCA [EX5 #88] (Eterna round: R97, puzzle: Exclusion 5) | 63.2 |  | 55.2 |  |  | 
26 | AACAGUACAGGAUAUACAUGAGGAUCACCCAUGUGAGAAUUAAGUGGCGAACCACAAAGUAGAAGGGUACUGGA [Mat - Exclusion 3 - JL mod - D1] (Eterna round: R96, puzzle: Exclusion 3) | 98.2 | 38.5 | 46.3 |  |  | 
27 | GCGCUGUCAGGAUAUGUGUGUGUGUGUGAAAGCGCGCGCGCGCAGAAGGGACAUGAGGAUCACCCAUGUGGUGU [-31.2, -30.2 kcal, A 20%, 6bis-6bis] (Eterna round: R97, puzzle: Exclusion 4) | 78.7 |  | 265 |  |  | 
28 | UUUAUGUGAGGAUAUAGUACUCCUUCUAUUAUUAUUGAGUACUAGAAGGCACAUGAGGAUCACCCAUGUAGUAC [Ex4 - 3 - 37] (puzzle: Exclusion 4) |  |  |  | 24.3 |  | 
29 | CUUUUGUGAGGAUAUUAGUAGUAAAUAAAUAAAAUUACUACUGAGAAGGCACAUGAGGAUCACCCAUGUUCUUC [salish99_ex4_r3_066] (puzzle: Exclusion 4) |  |  |  | 18.8 |  | 
30 | ACAAGCUUUUUGUUCGUCUUAUACACUCCUAAUAAGACAACAUGAGGAUCACCCAUGUAACAAAUAAGAACUCAUGU [Sesor Array 5 - Jieux - Sensor v3, turn-off variant 2] (puzzle: Sensor v3, turn-off variant 2) |  |  |  | 293 | 75 | 90.2
31 | UUUCCUGCGCGGGUUUUUUACAUGAGGAUCACCCAUGUCCUCUGCUUGUCUUGUCUUGGGCUUGUUUCGGGUUCGGG [-18.4, -40.2 kcal, A 8%] (Eterna round: R97, puzzle: Sensor, turn-off variant 1) | 635 |  | 1190 |  |  | 
32 | UCUCAGUCAGGAUAUCGUUAAUUUAAUUGUUUGUAUUAGUUCGAGAAGGGACAUGAGGAUCACCCAUGUACUCU [Ex4 #18] (Eterna round: R97, puzzle: Exclusion 4) | 29.8 |  | 18.8 |  |  | 
33 | AAGAAACAUGAGGAUCACCCAUGUGAGGAUAUGGCCCGCCCGGCGUAAGCAAAAUAAAUCAGAAGGCACAAAGG [salish99_ex1_r4_008] (Eterna round: R97, puzzle: Exclusion 1) | 39.5 |  | 47.2 |  |  | 
34 | GUCUUGUCAGGAUAUCUUACAUAACAAUCGUAGUUACAAUUGGAGAAGGGACAUGAGGAUCACCCAUGUUAGCA [tap-tap-tappy36] (Eterna round: R97, puzzle: Exclusion 4) | 26.5 |  | 26.9 |  |  | 
